Data reported in article PMC8809517, “Cofactor-independent RNA editing by a synthetic S-type PPR protein”.
Where a chain is given by its changes, count along the chain named.

What was measured:
Test in all cases: high-throughput RNA pulldown from lysate on Ni-NTA beads; HRP: 50 mM Tris pH 8, 150 mM NaCl, 1 mM beta-mercaptoethanol, 50 ug/ml BSA, 3 ug/ml yeast RNA, 0.5% heparin; ITC and FP: Tris pH 8, 200 mM KCl, 5% glycerol; MST: 50 mM Tris pH 8, 200 mM NaCl, 1 mM DTT, BSA, heparin, 0.05% Tween 20
Details in all cases: tags: N-terminal His-eGFP
[1] = target: T1, GFP-9S library array, motif 4 ND N98V;D124Q (synthetic construct, N98V;D124Q)
T1 chain: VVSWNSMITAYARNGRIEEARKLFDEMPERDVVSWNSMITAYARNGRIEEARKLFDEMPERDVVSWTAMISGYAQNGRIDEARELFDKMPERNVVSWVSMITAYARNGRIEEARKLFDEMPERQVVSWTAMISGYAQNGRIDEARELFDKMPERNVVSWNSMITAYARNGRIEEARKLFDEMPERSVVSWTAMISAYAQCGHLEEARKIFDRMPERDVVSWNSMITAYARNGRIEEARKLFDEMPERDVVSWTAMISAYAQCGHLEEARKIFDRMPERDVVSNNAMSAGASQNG

[2] = target: T2, GFP-9S library array, motif 4 ND N98T;D124K (synthetic construct, N98T;D124K)
T2 chain: T1 chain with V98T, Q124K

[3] = target: T3, GFP-9S library array, motif 4 ND N98M;D124P (synthetic construct, N98M;D124P)
T3 chain: T1 chain with V98M, Q124P

[4] = target: T4, GFP-9S library array, motif 4 ND N98H;D124N (synthetic construct, N98H;D124N)
T4 chain: T1 chain with V98H, Q124N

[5] = target: T5, GFP-9S library array, motif 4 ND N98L;D124L (synthetic construct, N98L;D124L)
T5 chain: T1 chain with V98L, Q124L

B1: Cy5-rpoA-G (ssRNA)
RNA: AUUAGACGUGA
B1 was tested, and the Kd ([1]; label: 5' Cy5) was 126 nM, the Kd ([2]; label: 5' Cy5) was 131 nM and the Kd ([3]; label: 5' Cy5) was 115 nM. For the same binder, the Kd ([4]; label: 5' Cy5) was 149 nM and the Kd ([5]; label: 5' Cy5) was 76.1 nM.

B2: IR-rpoA-U (ssRNA)
RNA: AUUAUACGUGA
B2 gave a Kd ([1]; label: 5' IRDye 800CW) of 167 nM, a Kd ([2]; label: 5' IRDye 800CW) of 81.9 nM and a Kd ([3]; label: 5' IRDye 800CW) of 296 nM. For the same binder, the Kd ([4]; label: 5' IRDye 800CW) was 30.8 nM and the Kd ([5]; label: 5' IRDye 800CW) was 158 nM.

B3: Cy5-rpoA (ssRNA)
RNA: AUUACACGUGA
Work on B3 yielded a Kd ([1]; label: 5' Cy5) of 144 nM, a Kd ([2]; label: 5' Cy5) of 131 nM and a Kd ([3]; label: 5' Cy5) of 106 nM. For the same binder, the Kd ([4]; label: 5' Cy5) was 36.1 nM and the Kd ([5]; label: 5' Cy5) was 74.9 nM.

B4: IR-rpoA-A (ssRNA)
RNA: AUUAAACGUGA
With B4 the Kd ([1]; label: 5' IRDye 800CW) was 166 nM, the Kd ([2]; label: 5' IRDye 800CW) was 53.4 nM and the Kd ([3]; label: 5' IRDye 800CW) was 264 nM. The Kd ([4]; label: 5' IRDye 800CW) was 189 nM and the Kd ([5]; label: 5' IRDye 800CW) was 157 nM.
